The record followed here is paper PMC8123127, “Structural Bases for the Synergistic Inhibition of Human Thymidylate Synthase and Ovarian Cancer Cell Growth by Drug Combinations” (Cancers, 2021).

Substrate in series [1]: O=c1ccn([C@H]2C[C@H](O)[C@@H](COP(=O)(O)O)O2)c(=O)[nH]1
The experiment in a line: purified protein. Format: biochemical, Homo sapiens. The conditions noted are these: mTHF substrate site in the catalytic pocket.

Substrate in series [2]: Nc1nc2c(c(=O)[nH]1)N1CN(c3ccc(C(=O)N[C@@H](CCC(=O)O)C(=O)O)cc3)CC1CN2
The experiment in a line: purified protein. The settings on record: dUMP cofactor site in the catalytic pocket; varied: cofactor.

B1: human thymidylate synthase (hTS) (Homo sapiens) (protein)
chain: MPVAGSELPRRPLPPAAQERDAEPRPPHGELQYLGQIQHILRCGVRKDDRTGTGTLSVFGMQARYSLRDEFPLLTTKRVFWKGVLEELLWFIKGSTNAKELSSKGVKIWDANGSRDFLDSLGFSTREEGDLGPVYGFQWRHFGAEYRDMESDYSGQGVDQLQRVIDTIKTNPDDRRIIMCAWNPRDLPLMALPPCHALCQFYVVNSELSCQLYQRSGDMGLGVPFNIASYALLTYMIAHITGLKPGDFIHTLGDAHIYLNHIEPLKIQLQREPRPFPKLRILRKVEKIDDFKAEDFQIEGYNPHPTIKMEMAV
notes: His6-tag protein (non-cleavable N-terminal His6-tag)
A word on the Km: it is the substrate concentration at which the rate is half of its maximum. B1: the results for the Km in “purified protein [1]” and in “purified protein [2]” were 10 µM and 5 µM, respectively.
